In publication PMC9482650, “Quantitative fragmentomics allow affinity mapping of interactomes” (Nature Communications, 2022):

Tests used:
Assay in all cases: holdup assay
Parameters in all cases: key: below the threshold = too weak to quantify, mostly under pKd 3.1 to 4
SNTB1, Q13884 = biological target: T1, SNTB1, Q13884
T1 sequence (Q13884 107-205, limits assumed, looked up): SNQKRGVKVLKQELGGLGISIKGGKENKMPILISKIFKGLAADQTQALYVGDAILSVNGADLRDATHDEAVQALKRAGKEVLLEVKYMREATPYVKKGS

PCLO, Q9Y6V0 = biological target: T2, PCLO, Q9Y6V0
T2 sequence (Q9Y6V0 4491-4600, limits assumed, looked up): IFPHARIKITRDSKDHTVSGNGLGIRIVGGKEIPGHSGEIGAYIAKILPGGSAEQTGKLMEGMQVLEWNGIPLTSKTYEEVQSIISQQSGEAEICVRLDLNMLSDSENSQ

FRMPD2_2, Q68DX3 = biological target: FRMPD2_2, Q68DX3
Sequence of FRMPD2_2, Q68DX3 (Q68DX3 944-1038): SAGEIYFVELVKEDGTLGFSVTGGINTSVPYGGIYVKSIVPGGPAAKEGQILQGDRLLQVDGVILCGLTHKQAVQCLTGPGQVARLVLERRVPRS

SIPA1L2, Q9P2F8 = biological target: T3, SIPA1L2, Q9P2F8
T3 sequence (Q9P2F8 945-1036, limits assumed, looked up): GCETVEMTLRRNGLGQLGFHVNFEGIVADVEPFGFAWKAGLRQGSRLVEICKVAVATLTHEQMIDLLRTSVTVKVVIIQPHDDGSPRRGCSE

PARD3B_1, Q8TEW8 = biological target: T4, PARD3B_1, Q8TEW8
T4 sequence (Q8TEW8 196-299, limits assumed, looked up): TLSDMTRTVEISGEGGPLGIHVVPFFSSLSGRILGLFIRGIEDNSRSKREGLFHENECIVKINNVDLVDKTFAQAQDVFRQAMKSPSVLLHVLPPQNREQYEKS

GIPC2, Q8TF65 = biological target: GIPC2, Q8TF65
Sequence of GIPC2, Q8TF65 (Q8TF65 112-203): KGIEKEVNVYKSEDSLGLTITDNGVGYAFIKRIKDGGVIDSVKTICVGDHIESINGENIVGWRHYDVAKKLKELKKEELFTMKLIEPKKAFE

RAPGEF6, Q8TEU7 = biological target: T5, RAPGEF6, Q8TEU7
T5 sequence (Q8TEU7 525-625, limits assumed, looked up): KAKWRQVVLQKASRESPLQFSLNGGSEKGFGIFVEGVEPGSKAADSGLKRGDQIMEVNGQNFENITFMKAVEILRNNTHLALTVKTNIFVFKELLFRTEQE

GRIP2_3, Q9C0E4 = biological target: GRIP2_3, Q9C0E4
Sequence of GRIP2_3, Q9C0E4 (Q9C0E4 238-339): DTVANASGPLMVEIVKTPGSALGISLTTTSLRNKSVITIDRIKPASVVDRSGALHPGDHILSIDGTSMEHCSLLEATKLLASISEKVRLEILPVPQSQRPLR

PDZD7_3, Q9H5P4 = biological target: T6, PDZD7_3, Q9H5P4
T6 sequence (Q9H5P4 857-944, limits assumed, looked up): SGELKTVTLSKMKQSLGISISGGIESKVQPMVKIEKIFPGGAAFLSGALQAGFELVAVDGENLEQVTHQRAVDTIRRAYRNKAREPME

LRRC7, Q96NW7 = biological target: T7, LRRC7, Q96NW7
T7 sequence (Q96NW7 1440-1537, limits assumed, looked up): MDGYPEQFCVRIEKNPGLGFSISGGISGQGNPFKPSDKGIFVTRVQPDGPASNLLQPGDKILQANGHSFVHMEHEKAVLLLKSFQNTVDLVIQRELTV

Inadl_10, Q8NI35 = biological target: Inadl_10, Q8NI35
Sequence of Inadl_10, Q8NI35 (Q8NI35 1673-1763): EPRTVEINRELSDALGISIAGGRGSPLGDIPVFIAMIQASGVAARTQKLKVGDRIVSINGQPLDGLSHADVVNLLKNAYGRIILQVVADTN

PTPN13_1, Q12923 = biological target: T8, PTPN13_1, Q12923
T8 sequence (Q12923 1088-1188, limits assumed, looked up): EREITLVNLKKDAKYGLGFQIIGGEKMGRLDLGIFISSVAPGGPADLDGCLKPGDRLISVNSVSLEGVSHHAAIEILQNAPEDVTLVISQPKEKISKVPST

DLG2_2, Q15700 = biological target: DLG2_2, Q15700
DLG1_3, Q12959 = biological target: DLG1_3, Q12959
Sequence of DLG1_3, Q12959 (Q12959 457-571): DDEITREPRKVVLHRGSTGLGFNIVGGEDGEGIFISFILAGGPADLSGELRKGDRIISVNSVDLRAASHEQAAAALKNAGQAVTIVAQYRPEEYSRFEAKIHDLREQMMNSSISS

LIN7A, O14910 = biological target: T9, LIN7A, O14910
T9 sequence (O14910 103-200, limits assumed, looked up): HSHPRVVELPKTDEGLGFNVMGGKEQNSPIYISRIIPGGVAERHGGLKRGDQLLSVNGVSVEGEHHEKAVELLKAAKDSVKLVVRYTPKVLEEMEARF

GOPC, Q9HD26 = biological target: GOPC, Q9HD26
DLG4_3, P78352 = biological target: DLG4_3, P78352
Sequence of DLG4_3, P78352 (P78352 306-403): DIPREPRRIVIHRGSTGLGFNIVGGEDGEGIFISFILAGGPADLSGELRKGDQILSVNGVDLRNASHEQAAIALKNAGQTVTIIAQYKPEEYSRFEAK

SYNJ2BP, P57105 = biological target: T10, SYNJ2BP, P57105
T10 sequence (P57105 8-110, limits assumed, looked up): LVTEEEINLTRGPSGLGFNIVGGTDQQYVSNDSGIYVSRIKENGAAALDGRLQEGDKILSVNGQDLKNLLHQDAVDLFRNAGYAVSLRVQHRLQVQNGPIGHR

DLG1_2, Q12959 = biological target: DLG1_2, Q12959
Sequence of DLG1_2, Q12959 (Q12959 314-412): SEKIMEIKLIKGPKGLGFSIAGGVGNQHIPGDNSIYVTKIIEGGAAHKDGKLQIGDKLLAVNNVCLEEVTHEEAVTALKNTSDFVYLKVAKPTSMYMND

DLG2_3, Q15700 = biological target: DLG2_3, Q15700
GRID2IP_1, A4D2P6 = biological target: GRID2IP_1, A4D2P6
Sequence of GRID2IP_1, A4D2P6 (A4D2P6 1-87): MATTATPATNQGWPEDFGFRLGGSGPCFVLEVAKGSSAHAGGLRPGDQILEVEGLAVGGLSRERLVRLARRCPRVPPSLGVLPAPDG

HTRA1, Q92743 = biological target: HTRA1, Q92743
Sequence of HTRA1, Q92743 (Q92743 360-477): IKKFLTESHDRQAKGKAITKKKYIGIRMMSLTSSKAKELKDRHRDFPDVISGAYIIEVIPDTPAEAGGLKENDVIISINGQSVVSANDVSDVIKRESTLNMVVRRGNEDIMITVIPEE

GRIP2_7, Q9C0E4 = biological target: GRIP2_7, Q9C0E4
Sequence of GRIP2_7, Q9C0E4 (Q9C0E4 934-1023): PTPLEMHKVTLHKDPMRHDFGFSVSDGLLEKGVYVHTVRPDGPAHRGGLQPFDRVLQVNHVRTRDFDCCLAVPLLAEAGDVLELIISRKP

ARHGAP21, Q5T5U3 = biological target: T11, ARHGAP21, Q5T5U3
T11 sequence (Q5T5U3 45-169, limits assumed, looked up): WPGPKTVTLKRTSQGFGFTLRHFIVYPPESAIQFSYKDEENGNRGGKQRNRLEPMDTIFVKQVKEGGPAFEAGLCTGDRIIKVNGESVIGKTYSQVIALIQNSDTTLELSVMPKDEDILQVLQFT

MPDZ_5, O75970 = biological target: T12, MPDZ_5, O75970
T12 sequence (O75970 695-796, limits assumed, looked up): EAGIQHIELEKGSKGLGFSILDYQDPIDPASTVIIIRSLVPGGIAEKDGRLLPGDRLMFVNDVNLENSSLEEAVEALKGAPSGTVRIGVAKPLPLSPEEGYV

[1] = plain residues with an end cap or a label only (N-terminal biotin on a linker: ttds)
[2] = plain residues with an end cap or a label only (N-terminal biotin on a linker: ahx)
[3] = plain residues with an end cap or a label only (N-terminal biotin on a linker: ado-ado)

B1: SLC16A3, O15427 (peptide)
chain: EVVHTPETSV
For B1, the pKd (SNTB1, Q13884; [1]) was 4.76, the pKd (PCLO, Q9Y6V0; [1]) was “below the threshold” and the pKd (FRMPD2_2, Q68DX3; [1]) was 4.5. The pKd (SIPA1L2, Q9P2F8; [1]) was “below the threshold”, the pKd (PARD3B_1, Q8TEW8; [1]) was “below the threshold” and the pKd (GIPC2, Q8TF65; [1]) was “below the threshold”. The pKd (RAPGEF6, Q8TEU7; [1]) was “below the threshold”, the pKd (GRIP2_3, Q9C0E4; [1]) was “below the threshold” and the pKd (PDZD7_3, Q9H5P4; [1]) was 4.45. The pKd (LRRC7, Q96NW7; [1]) was “below the threshold”, the pKd (Inadl_10, Q8NI35; [1]) was “below the threshold” and the pKd (PTPN13_1, Q12923; [1]) was “below the threshold”. For the same binder, the pKd (DLG2_2, Q15700; [1]) was 3.98, the pKd (DLG1_3, Q12959; [1]) was 4.1 and the pKd (LIN7A, O14910; [1]) was “below the threshold”. The pKd (GOPC, Q9HD26; [1]) was “below the threshold”, the pKd (DLG4_3, P78352; [1]) was 3.94 and the pKd (SYNJ2BP, P57105; [1]) was 4.78. For the same binder, the pKd (DLG1_2, Q12959; [1]) was 4.3, the pKd (DLG2_3, Q15700; [1]) was 4.35 and the pKd (GRID2IP_1, A4D2P6; [1]) was “below the threshold”. The pKd (HTRA1, Q92743; [1]) was “below the threshold”, the pKd (GRIP2_7, Q9C0E4; [1]) was “below the threshold” and the pKd (ARHGAP21, Q5T5U3; [1]) was “below the threshold”. The pKd (MPDZ_5, O75970; [1]) was “below the threshold”.

B2: PDZRN4, Q6ZMN7 (peptide)
chain: HNAFLSVTTV
B2 was tested, and the pKd (SNTB1, Q13884; [2]) was 3.54, the pKd (PCLO, Q9Y6V0; [2]) was “below the threshold” and the pKd (FRMPD2_2, Q68DX3; [2]) was “below the threshold”. The pKd (SIPA1L2, Q9P2F8; [2]) was “below the threshold”, the pKd (PARD3B_1, Q8TEW8; [2]) was 3.55 and the pKd (GIPC2, Q8TF65; [2]) was “below the threshold”. For the same binder, the pKd (RAPGEF6, Q8TEU7; [2]) was “below the threshold”, the pKd (GRIP2_3, Q9C0E4; [2]) was “below the threshold” and the pKd (PDZD7_3, Q9H5P4; [2]) was 4.71. For the same binder, the pKd (LRRC7, Q96NW7; [2]) was 3.5, the pKd (Inadl_10, Q8NI35; [2]) was 3.57 and the pKd (PTPN13_1, Q12923; [2]) was “below the threshold”. For the same binder, the pKd (DLG2_2, Q15700; [2]) was “below the threshold”, the pKd (DLG1_3, Q12959; [2]) was “below the threshold” and the pKd (LIN7A, O14910; [2]) was 3.52. The pKd (GOPC, Q9HD26; [2]) was 3.6, the pKd (DLG4_3, P78352; [2]) was 3.56 and the pKd (SYNJ2BP, P57105; [2]) was “below the threshold”. The pKd (DLG1_2, Q12959; [2]) was 3.52, the pKd (DLG2_3, Q15700; [2]) was 3.53 and the pKd (GRID2IP_1, A4D2P6; [2]) was “below the threshold”. For the same binder, the pKd (HTRA1, Q92743; [2]) was 3.61, the pKd (GRIP2_7, Q9C0E4; [2]) was “below the threshold” and the pKd (ARHGAP21, Q5T5U3; [2]) was 3.5. The pKd (MPDZ_5, O75970; [2]) was 3.49.

B3: TRIM50, Q86XT4 (peptide)
chain: PLSPEQPTKL
B3 was tested, and the pKd (SNTB1, Q13884; [3]) was “below the threshold”, the pKd (PCLO, Q9Y6V0; [3]) was “below the threshold” and the pKd (FRMPD2_2, Q68DX3; [3]) was “below the threshold”. For the same binder, the pKd (SIPA1L2, Q9P2F8; [3]) was “below the threshold”, the pKd (PARD3B_1, Q8TEW8; [3]) was 4.06 and the pKd (GIPC2, Q8TF65; [3]) was “below the threshold”. For the same binder, the pKd (RAPGEF6, Q8TEU7; [3]) was “below the threshold”, the pKd (GRIP2_3, Q9C0E4; [3]) was “below the threshold” and the pKd (PDZD7_3, Q9H5P4; [3]) was 4.04. The pKd (LRRC7, Q96NW7; [3]) was “below the threshold”, the pKd (Inadl_10, Q8NI35; [3]) was “below the threshold” and the pKd (PTPN13_1, Q12923; [3]) was “below the threshold”. The pKd (DLG2_2, Q15700; [3]) was “below the threshold”, the pKd (DLG1_3, Q12959; [3]) was “below the threshold” and the pKd (LIN7A, O14910; [3]) was “below the threshold”. The pKd (GOPC, Q9HD26; [3]) was “below the threshold”, the pKd (DLG4_3, P78352; [3]) was “below the threshold” and the pKd (SYNJ2BP, P57105; [3]) was “below the threshold”. For the same binder, the pKd (DLG1_2, Q12959; [3]) was “below the threshold”, the pKd (DLG2_3, Q15700; [3]) was “below the threshold” and the pKd (GRID2IP_1, A4D2P6; [3]) was “below the threshold”. For the same binder, the pKd (HTRA1, Q92743; [3]) was “below the threshold”, the pKd (GRIP2_7, Q9C0E4; [3]) was “below the threshold” and the pKd (ARHGAP21, Q5T5U3; [3]) was “below the threshold”. The pKd (MPDZ_5, O75970; [3]) was “below the threshold”.

B4: NHERF2, Q15599 (peptide)
chain: NRKREIFSNF
For B4, the pKd (SNTB1, Q13884; [2]) was “below the threshold”, the pKd (PCLO, Q9Y6V0; [2]) was “below the threshold” and the pKd (FRMPD2_2, Q68DX3; [2]) was “below the threshold”. For the same binder, the pKd (SIPA1L2, Q9P2F8; [2]) was “below the threshold”, the pKd (PARD3B_1, Q8TEW8; [2]) was “below the threshold” and the pKd (GIPC2, Q8TF65; [2]) was “below the threshold”. For the same binder, the pKd (RAPGEF6, Q8TEU7; [2]) was “below the threshold”, the pKd (GRIP2_3, Q9C0E4; [2]) was “below the threshold” and the pKd (PDZD7_3, Q9H5P4; [2]) was “below the threshold”. For the same binder, the pKd (LRRC7, Q96NW7; [2]) was “below the threshold”, the pKd (Inadl_10, Q8NI35; [2]) was “below the threshold” and the pKd (PTPN13_1, Q12923; [2]) was “below the threshold”. For the same binder, the pKd (DLG2_2, Q15700; [2]) was “below the threshold”, the pKd (DLG1_3, Q12959; [2]) was “below the threshold” and the pKd (LIN7A, O14910; [2]) was “below the threshold”. The pKd (GOPC, Q9HD26; [2]) was “below the threshold”, the pKd (DLG4_3, P78352; [2]) was “below the threshold” and the pKd (SYNJ2BP, P57105; [2]) was “below the threshold”. For the same binder, the pKd (DLG1_2, Q12959; [2]) was “below the threshold”, the pKd (DLG2_3, Q15700; [2]) was “below the threshold” and the pKd (GRID2IP_1, A4D2P6; [2]) was “below the threshold”. The pKd (HTRA1, Q92743; [2]) was “below the threshold”, the pKd (GRIP2_7, Q9C0E4; [2]) was “below the threshold” and the pKd (ARHGAP21, Q5T5U3; [2]) was “below the threshold”. For the same binder, the pKd (MPDZ_5, O75970; [2]) was “below the threshold”.
